Laboratory results taken from the supplement of paper PMC10567573.
± gives the standard deviation.

Assay: protein stability index of a GFP-peptide fusion (GPS, HEK-293T) (PSI 1-6); higher = more stable
[1] = treatment: DMSO, c terminus: a fixed tail appended
[2] = treatment: MLN4924 1 uM, 8 h, c terminus: a fixed tail appended
[3] = treatment: DMSO, c terminus: native
[4] = treatment: MLN4924 1 uM, 8 h, c terminus: native
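Note: 24-mer peptide tiles fused after GFP, lentivirally expressed, FACS-sorted into six equal bins by GFP/DsRed ratio, decoded by Illumina sequencing, PSI is the read-weighted mean bin number.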

Sequence	protein stability index [1]	protein stability index [2]	protein stability index [3]	protein stability index [4]
LVRGHRRRLLRRLSPSRGVAQCLR [ZSWIM9]	3.2 ± 0.23	3.41 ± 0.25	–	–
VTGLNPKTKYILLMDIVPADDHRY [TBX5]	2.63 ± 0.44	1.95 ± 0.53	–	–
PETFWIQRAPQLPTWWPLPTQVPA [SPAG8]	2.42 ± 0.19	2.52 ± 0.15	–	–
LLDKAGVPPGVVNIVFGTGPRVGE [ALDH8A1]	2.53 ± 0.16	2.76 ± 0.51	–	–
EMHTALMEACMDGHVEVARLLLDS [ANKRD17]	2.38 ± 0.22	2.55 ± 0.28	–	–
LEAAEVILEHAHRGEQTTSQVSWE [FCHSD1]	3.63 ± 0.58	4.25 ± 0.79	–	–
TVPSAATSQPTPSQHSAHTSSQP [CCDC6]	–	–	5.42 ± 0.23	5.33 ± 0.15
SPSVMRLVHTQEPGEWLELLLEPG [ALKBH7]	2.83 ± 0.23	3 ± 0.24	–	–
SFTQEQVADIDGQYAMTRAQRVRA [CTNNB1]	4.62 ± 0.19	4.62 ± 0.14	–	–
SVRRTRSKIGFGILLSKEPDGVWA [SMAD6]	2.18 ± 0.12	2.3 ± 0.12	–	–
GISAKVFGATTNYGKDIVKACSLL [ZBED1]	2.33 ± 0.4	2.26 ± 0.35	–	–
PETLTNLRKGYLFMYNLVQFLGFS [HACD3]	2.34 ± 0.56	2.04 ± 0.34	–	–
SWVTDMCKVGASSDPCGQLRPTLL [PNLIPRP1]	2.14 ± 0.38	2.34 ± 0.41	–	–
VGVATARAPLHSVGYTALVGSDAE [SPSB4]	4.35 ± 0.19	4.38 ± 0.3	–	–
HTETGEEVLRMCVAVKKKLQLYFW [VPS39]	2.8 ± 0.85	2.82 ± 0.33	–	–
RPGETGMDVTSRCTLGDPNKLPEG [KLHL20]	5.16 ± 0.31	5.11 ± 0.14	–	–
RLVAPTEGSLEWDILEVKRLLDHQ [WDR41]	2.67 ± 0.46	2.77 ± 0.29	–	–
HPVTIGGKIVGSLCAIAGVLTIAL [KCNA3]	2.6 ± 0.42	2.05 ± 0.28	–	–
DYQPTQAGRLMRPSVKYLSHPRVQ [RNF180]	3.34 ± 0.22	3.4 ± 0.12	–	–
IHSCFSDVTCFLLPHPGLQVATSP [ATL3]	2.34 ± 0.7	2.29 ± 0.49	–	–
ALVSHPEVPLISFTGSQPTAERIT [ALDH8A1]	3.87 ± 0.2	3.87 ± 0.31	–	–
ARDVQKIIGDYFSDQDPRVRTAAI [INTS4]	3.03 ± 0.29	3.15 ± 0.21	–	–

Sequence	protein stability index [1]	protein stability index [2]	protein stability index [3]	protein stability index [4]
FIVDILQFLDIGPDVTRVGLLQYG [MATN2]	3.11 ± 0.51	2.94 ± 0.82	–	–
AFDFDYGNCKYKVDCACLKENPEC [KMT2E]	3.53 ± 0.17	3.54 ± 0.42	–	–
AVLLQLYVATEAILIALVGATPSY [SLC22A15]	3.33 ± 0.37	3.26 ± 0.52	–	–
KATEPTETVQTWIELLTGETWNPF [GOLPH3L]	2.36 ± 0.13	2.5 ± 0.34	–	–
MTTESGSDSESKPDQEAEPQEAAG [EPB41L3]	5.62 ± 0.33	5.56 ± 0.45	–	–
GSAPFLFLSLACARGSIVATYIFI [SPNS1]	3.15 ± 0.53	2.9 ± 0.46	–	–
QRLKAVIVIQTYYRQWHAKIFVEN [IQUB]	2.83 ± 0.5	2.79 ± 0.79	–	–
EVALDKGCSQFRLAVLDWNQRAMD [SAT2]	2.94 ± 0.48	2.95 ± 0.28	–	–
WRMLTYKALNTFIDDLFAFVIKMP [CLPTM1]	2.95 ± 0.4	2.96 ± 0.7	–	–
SWREAKVSWFGSPTTSFLSISKLS [PWWP2B]	2.15 ± 0.46	2.44 ± 0.43	–	–
KLTREVLSLFVQKLGNLMSLDISG [ZER1]	2.86 ± 0.81	2.56 ± 0.46	–	–
EKNQVQLGKLEATIKSLSAELLKA [SASS6]	2.6 ± 0.45	2.54 ± 0.42	–	–
CFRFRQSSGRRVSLHCLLDQFDKD [DENND6A]	2.5 ± 0.73	2.41 ± 0.53	–	–
ARHFNYVGDLMGSLAYCLACGGGH [DHCR7]	2.9 ± 0.71	2.68 ± 0.53	–	–
VQLIWVVSQLYPESIVPIPSSNEE [INTS4]	3.07 ± 0.45	2.81 ± 1.1	–	–
AVGAAAEAEADEEADPPASDLPTP [SNX8]	5.5 ± 0.27	5.56 ± 0.19	–	–
IEDDIRPEKQKRKPGLRRSPIKKV [MYBL2]	5.01 ± 0.25	4.83 ± 0.23	–	–
CIENNIDLQVNRNFSLATNTKYSV [R3HDM1]	2.59 ± 0.24	2.31 ± 0.43	–	–
SSLVWLFSQLYLYSFISLFIYMVL [MCOLN1]	3.02 ± 0.19	3.03 ± 0.68	–	–
TATTAPPALDIFGDLFESTPEVAA [SNAP91]	4.62 ± 0.29	4.71 ± 0.2	–	–
WDLVSASVVCRELGFGSAKEAVTG [LOXL2]	2.58 ± 0.31	2.61 ± 0.089	–	–
ELSPLALGRFSLTPAEGDTEEDDG [CDC25B]	5.44 ± 0.18	5.44 ± 0.43	–	–

Sequence	protein stability index [1]	protein stability index [2]	protein stability index [3]	protein stability index [4]
SPEKEEQYIAQFTSQFLSLQCLQA [PRAME]	2.84 ± 0.41	2.44 ± 0.37	–	–
SGCLPPEPLFEAGDATLASDLQDW [FOXJ1]	4.82 ± 0.36	4.74 ± 0.18	–	–
IEDTPLVPVSFIFIFTFVKKKKIG [PCDHGA10]	2.29 ± 0.55	3.12 ± 0.37	–	–
KVRALEEANADLEVKIRDWHLKQS [KRT13]	4.05 ± 0.2	4.22 ± 0.13	–	–
LHYAAMHGRARIARLMLESEYRSD [ASB7]	2.73 ± 0.19	2.77 ± 0.28	–	–
FLKAVLRQERVSLYPFQIHSIALS [CDS1]	2.01 ± 0.23	2.42 ± 0.91	–	–
KALEDFEDLCDRVFSDEDSELDN [FAM9B]	–	–	4.98 ± 0.16	5.17 ± 0.3
EGEEDATSEVDKRRTRPRHHHGRS [CHGB]	5.35 ± 0.47	5.33 ± 0.28	–	–
TVYNEMDKNRCELLSFLLLMDYIG [EDNRA]	2.09 ± 0.34	2.17 ± 0.5	–	–
PPTSGCLGPVPREDQAEAWGCSCC [TSPAN10]	4.8 ± 0.3	4.74 ± 0.24	–	–
QRVEQLTRDLAGLRQFFKQLPSPP [CEBPD]	2.71 ± 0.34	2.82 ± 0.29	–	–
TGELETLKERCAQDACQAQAREKE [CCDC89]	5.46 ± 0.31	5.39 ± 0.2	–	–
LHKQVLMGPYNPDTCPEVGFFDVL [ACBD3]	2.4 ± 0.31	2.18 ± 0.21	–	–
HASKCEFLANLHITALLNVSRRTS [DUSP5]	2.2 ± 0.2	2.33 ± 0.22	–	–
GSFNGSEKETMQFLNDRLANYLEK [KRT36]	3.38 ± 0.28	3.58 ± 0.3	–	–
VEILDLNDNSPSFATPEREMRISE [PCDHGC5]	4.08 ± 0.31	4.2 ± 0.28	–	–
LLKSHTNVLSVNLPDNFTLKEDGM [TPH1]	3.15 ± 0.24	3.22 ± 0.34	–	–
EFHQRRSEIIQITTGSKELDKLLQ [RAD51]	2.93 ± 0.2	3.03 ± 0.51	–	–
HHKTYDPTYSDFCQFRPPVRVNDG [VDR]	3.38 ± 0.29	3.28 ± 0.16	–	–
ISGGVHNGEYVPWLYCYDPVMDVW [KLHL14]	2.32 ± 0.33	2.59 ± 0.73	–	–
NFQQPGFTSGTGHFTAMVWKNTKK [GLIPR2]	3.74 ± 0.32	3.95 ± 0.067	–	–
